The values that follow come from publication PMC3539201.

For the assay, the target named is MBP-torsinAΔE (human) (UniProt O14656). Briefly: pull-down.

B1: nesprin-3α (endogenous, mouse fibroblasts) (natural protein)
chain: MTQQPQEDFERSVEDAQAWMKVIQEQLQVNDNTKGPRAALEARLRETEKICQLESEGMVKVELVLRAAEALLATCQEGQKPEILARLRDIKSQWEETVTYMTHCHSRIEWVWLHWSEYLLAQDEFYRWFQKMVVALEPPVELQLGLKEKQWQLSHAQVLLHNVDNQAVLLDRLLEEAGSLFSRIGDPSVDEDAQKRMKAEYDAVKARAQRRVDLLAQVAQDHEQYREDVNEFQLWLKAVVEKVHSCLGRNCKLATELRLSTLQDIAKDFPRGEESLKRLEEQAVGVIQNTSPLGAEKISGELEEMRGVLEKLRVLWKEEEGRLRGLLQSRGDCEQQIQQLEAELGDFKKSLQRLAQEGLEPTVKTATEDELVAQWRLFSGTRAALASEEPRVDRLQTQLKKLVTFPDLQSLSDSVVATIQEYQSMKGKNTRLHNATRAELWQRFQRPLNDLQLWKALAQRLLDITASLPDLASIHTFLPQIEAALTESSRLKEQLAMLQLKTDLLGSIFGQERAATLLEQVTSSVRDRDLLHNSLLQRKSKLQSLLVQHKDFGVAFDPLNRKLLDLQARIQAEKGLPRDLPGKQVQLLRLQGLQEEGLDLGTQIEAVRPLAHGNSKHQQKVDQISCDQQALQRSLEDLVDRCQQNVREHCTFSHRLSELQLWITMATQTLESHQGDVRLWDAESQEAGLETLLSEIPEKEVQVSLLQALGQLVMKKSSPEGATMVQEELRKLMESWQALRLLEENMLSLMRNQQLQRTEVDTGKKQVFTNNIPKAGFLINPQDPIPRRQHGANPLEGHDLPEDHPQLLRDFEQWLQAENSKLRRIITMRVATAKDLRTREVKLQELEARIPEGQHLFENLLRLRPARDPSNELEDLRYRWMLYKSKLKDSGHLLTESSPGELTAFQKSRRQKRWSPCSLLQKACRVALPLQLLLLLFLLLLFLLPAGEEERSCALANNFARSFALMLRYNGPPPT
For B1, the fold nesprin-3α pulled down relative to MBP-torsinA amounted to 3 fold.
